Laboratory results: the nanobody polyreactivity screen of Harvey et al. (2022)

Assay: yeast display, Sf9 membrane polyspecificity reagent, FACS + sequencing; frameworks hold sequencing errors
In short: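 Galactose-induced (36–48 hours) yeast carrying a synthetic nanobody display library were exposed to 10% biotinylated, detergent-solubilized Sf9 membrane reagent at 4 °C for 1 hour. FACS followed streptavidin microbead enrichment, using low and high (top ~1%) gates for expression (anti-HA) and reagent binding (streptavidin). Colony PCR, MiSeq 2 × 250 sequencing and CDR-length filtering followed. Labels for polyreactivity reflect the gate of origin.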

Q: For “QVQLVESGGGLVQAGGSLRLSCAASGITIGSNVMGWYRQAPGKERELVAAISQSGGRTYYADSVKGRFTISRDNAKNTVYLQMNSLKPEDTAVYYCAKRQRSFYGRPMGDYWGQGTQVTVSS”, which “polyreactivity (PSR sort gate)” value is on record?
A: high polyreactivity

Q: Which “polyreactivity (PSR sort gate)” value does the source give for “QVQLVESGGGLVQAGGSLRLSCAASGSTFEWYTMGWYRQAPGKERELVAAINGGGSTKYADSVKGRFTISRDNAKKTVYLQMNSLKPEDTAVYYCNLKYGMYWGQGTQVTVSS” here?
A: high polyreactivity

Q: With “QDQLVESGGGLVQAGGSLPLSCAASGRTISAYAMGWYRQAPGKERELVAAISRRGGSTYYADSVKGRFSISRDNAKNTVYLQLNSLKPEETAVYYCAADVYKQYGYYYWGEGTQVTVSS” as the sequence, how does the “polyreactivity (PSR sort gate)” value read?
A: high polyreactivity

Q: For “QVQLVESGGGLVQAGGSLRLSCAAYGFTFYLNAMGWYRPAPGKERELVAAISYSDGSTYYADSVKGRFTISRDNAKNTVYLQMTSLKPEDTAVYYCAADTTDPGGAYQLMDYWGQGTQVSVSS”, which “polyreactivity (PSR sort gate)” value is on record?
A: low polyreactivity

Q: With “QVQLVESGGGLVQAGGSLRLSCAASGNIFLYYAMGWYRQAPGKERELVADIDSSGASTYYADSVKGRFTISRDNAKNTVYLQMNSLKPEDTAVYYGAKDSNRYSYYSPYDSWGQGTQVTVSS” as the sequence, how does the “polyreactivity (PSR sort gate)” value read?
A: low polyreactivity

Q: For “QVQLVESGGGLVQAGGSLRLSCAASGFIFRWYTMGWYRQAPGKERELVAAISWRSGSTSYADSVMGRFTISRDNAKNTVYFQMNSLKPEDSAGYYCNADYSSFWTSYDYWGQGTQVTVSS”, which “polyreactivity (PSR sort gate)” value is on record?
A: high polyreactivity

Q: Which “polyreactivity (PSR sort gate)” value does the source give for “QVQLVESGGGLVQAGGSLRLSCAASGRIFRPYTMGWYRQAPGKERELVAANSWRGGSTYYADSVKVRFTISLDNAKNTVYLLINSLKPEATAVYYCATYVKVIRTAGTRPKMGYWGQVTQVTVSS” here?
A: high polyreactivity

Q: With “QVQLVESGGGLVPAGGSLRLSCAASGFIFHGYAIGWYREAPGKEMELVAAISGTGGSTYYADSVKGRFTISRDNAKNTVYLQMNSLKPEDTAVYYCNARRVRSDRRGGDYWGQGTQVTVSS” as the sequence, how does the “polyreactivity (PSR sort gate)” value read?
A: high polyreactivity

Q: For “QVQLVESGGGLVQAGGSLRLSCAASGSTFVYYGMGWYRQAPGKERELVAAITDIGDSTNYADSVKGRFTISRDNAKNTVYLQMNSLKPEDTAVYYCAASGRSVPYYGSPRNDYWGQGTQVTVSS”, which “polyreactivity (PSR sort gate)” value is on record?
A: low polyreactivity

Q: Which “polyreactivity (PSR sort gate)” value does the source give for “QVQLVESGGGLVQAGCSLRLSCAASGSIFKRYTMGWYRQAPGKERELVAAISSRGGSTYYADSVKGRFTISRDNAKNTVYLQMNILKPEDTAVYYCNTKLHDGYGGWRYDYWGQGTQVTVSS” here?
A: high polyreactivity

Q: With “QVQLQESGGGLVQAGGSLRLSCAAIGYISYFVGMGWYRQQPGKEREFVASIADVSNTYYADSVKGRFTISRDNAKNTVYLQRNSLKPEDTAVYYCAVVDSWTYRFDYWGQGTQVTVSS” as the sequence, how does the “polyreactivity (PSR sort gate)” value read?
A: high polyreactivity

Q: With “QVQLVESGGGLVQAGGSLRLSCAASGRTFYKNTMGWYRQAPGKERELVAAIRWRGSSTYYADSVKGRFTISRDNAKNSVYLKMNSLKPEDTAVYYCAAPSSVRGKVISADYAYWGQGTQVTVSS” as the sequence, how does the “polyreactivity (PSR sort gate)” value read?
A: high polyreactivity

Q: With “QAQLQESGGSLVQAGGGLRLSCAASGYISVGSVMGWYRQAPSKERELVASIDQGANTNYADSVNGRFTISRDNAKNKESLQMNSLKPEDTAVYYCATETTYIVIYWGQGTQVTVSS” as the sequence, how does the “polyreactivity (PSR sort gate)” value read?
A: low polyreactivity

Q: With “QVQHVESGGGLVQAGGSLRLSCAASGSILPFNAMGWYRQAPGKVRELVAAIDGSGGDTYYADSVKGRFTISRDNAKNTVYLQMNSLKAEDTAVYYCAAEYYYTSQLAKYHYGYEYWGQGTQETVSS” as the sequence, how does the “polyreactivity (PSR sort gate)” value read?
A: high polyreactivity

Q: Which “polyreactivity (PSR sort gate)” value does the source give for “QVQLVESGGGLVQAGGSLRLSCAASGIIFYGNVMGWYRQAPGKERELVAAITSTGSTSYADSVKGRFTMSRDNGKNTVYLQMNSLKPEDTAVYYCAADNAVWEYDYWGQGTQVTVSS” here?
A: low polyreactivity

Q: Which “polyreactivity (PSR sort gate)” value does the source give for “QVQLVESVGGLVQAGCILRLSCAPSGRIFGVNAMGWYRQAPGKVRELVAAIDWSDGSTYYADSVKGRFTISRDNAKNTVYLQMNSLKPEDTAVYYCAALPSYLAAQYGDDYWGQGTQVTVSS” here?
A: low polyreactivity

Q: For “QVQLVESGGGLVQAGGSLRLSCAASGSIFQNYAMGWYRQAPGKERELVAAINDDSTYYADSVKGRFTISRDNAKNTVYLQMNSLKPEDTAVYYCNAEDYVTLKIDLSWPYGYWGQGTQVTVSS”, which “polyreactivity (PSR sort gate)” value is on record?
A: low polyreactivity

Q: With “QVQIVESGGGLVQAGGSLRLSCAASGRIFGYNAMGWYRQAPGKERELVAAISNTGGSTYYADSVKGRFTISRDNAKNTVYLQMNSLKPEDTAVYYCNASGRRVQIWEGDYWGHGTQVTVSS” as the sequence, how does the “polyreactivity (PSR sort gate)” value read?
A: high polyreactivity

Q: Which “polyreactivity (PSR sort gate)” value does the source give for “QVQLVESRGGLVQAGGSLRLSCAASGRIFDVYAMVWYRQAPGKERELVAAITWSGTSTYYADSVKGRFTISRDNAKNTVYVQMNSLKPEDTAVYYCAAEVAYTDTEYFWYYYWGQGTQVTVSS” here?
A: high polyreactivity

Q: Which “polyreactivity (PSR sort gate)” value does the source give for “QVQHVESGGRLVQAGGSLRLSCAASGRTFPQYAMGWYRQAPGKERELVAAITSGDSTNYSDSVKGRFTISRDNAKNTVYLQMNSLKPEDTAVYYCAAVYYYSKWYTPYEDVYWGQGTQVTVSS” here?
A: low polyreactivity

Q: Which “polyreactivity (PSR sort gate)” value does the source give for “QVQLVESGGGLVQAGGSLRLSCAASGSTIEPNSMGWYRQAPGKEREFVAAITTRGGSTFYADSVKGRFTISRDNAKNTVYLQMNSLKPEDTAVYYCAADYYFVDYDYWGQGTQVTVSS” here?
A: low polyreactivity

Q: With “QVQLVESGGGLVQAGGSLRLSCAASRRILRVYAMGWYRQAPGKERELVASISSGGSTNYADSVKGRFTISRDNAKNTVYFQMKSLKPEDTAVYYCNRRWVHTYDYWGQGTQVTVSS” as the sequence, how does the “polyreactivity (PSR sort gate)” value read?
A: high polyreactivity

Q: Which “polyreactivity (PSR sort gate)” value does the source give for “QVQLVESAGGLVQAGGSLRLSCAASGRIFYLYAMGWYRQAPGQERELVARITSGSGTYYADSVKGRFTISRDNAKNTVYLQMNSLKPEDTGVYYCAAREPGVCFVGHYTGLDYWGQGTQVTVSS” here?
A: low polyreactivity

Q: For “QVQLVESGGGLVQAGGSLRLSCAASGLTLYLYTMGWYRQAPRTDRELVASIDSGTSTKYADSVKGRFTISRDHAKYTVYLQMNRLKPVDTAGYDCAAGVWVTRYFGYYYWGQGTQVTVSS”, which “polyreactivity (PSR sort gate)” value is on record?
A: low polyreactivity

Q: With “QVQLVESGGGLVQAGGSLRLSCAASGRISASYAMGWYRQAPGKERELVAAITGSGGSTYYADSVKGRFTISRDNAKNTVYVQMNSLNPEDTAVYYCAADPGWAWWVLNYWVQGTQVTVSS” as the sequence, how does the “polyreactivity (PSR sort gate)” value read?
A: low polyreactivity

Q: With “QVQLVESGGGLVQAGGSLRLSCAASGFIYARYAMGWYRQAPGKERELVAGISGGGGRTYYADSVKGRFTISRDNAKNTVYLQMNSLKPEDTAVYYCAATPQSRDRRFNYWGQGTQVTVSS” as the sequence, how does the “polyreactivity (PSR sort gate)” value read?
A: high polyreactivity

Q: Which “polyreactivity (PSR sort gate)” value does the source give for “QFQLVESGGGLVQAGGSLRLSCAASGSIFFYYAMGWYRQAPGKERELVAAITFTGGSTYYADSVKGRFTISRDNAKNTVYLQMNSLKPEDTAVYYCADYWYYGDEYVYWGQGTQVTVSS” here?
A: high polyreactivity

Q: For “QVQLVESGGGLVQAGGSLRLSCAASGRIYAMGWYRQAPGKERELVAAISRGGSTYYADSVKGRFTISRDNAKNTVYLQKNSLKPEDTAVYYCNRKSYRLRWKVRGQYLLGYDWGQGTQVTVSS”, which “polyreactivity (PSR sort gate)” value is on record?
A: high polyreactivity

Q: Which “polyreactivity (PSR sort gate)” value does the source give for “QDQLVETGGGLVQAGGSLRLSCAASGIIFYPNAMGWYRQAPGKERELVAAISWRSGSTYYADSVKGRFTISRDNAKNTVYLQMNSLKPEDTAVYYCAADRRRSYIWRYDYWGQGTQVTVSS” here?
A: low polyreactivity

Q: For “QVQLVESGGGLVQAGGSLRLSCAASGSNFSYNAMGWYRQAPGKERELVATITTGGRTSYADSVKGRFTISRDNAKNTVYLQMNSLKPEDTAVYYCAAVGRFSSRPRVVYYGYDYWGQGTQVTVSS”, which “polyreactivity (PSR sort gate)” value is on record?
A: low polyreactivity

Q: For “QVQLVESGGGLDQARGSLRLSCAASGLTFHRYAMGWYRQANGKERELVAAINYSGGRTYYADSVKGRFTISRDNAKNTVYLQMNSLKPEDTAVYYCNAVRYQKIFDYWGQGTQVTVSS”, which “polyreactivity (PSR sort gate)” value is on record?
A: high polyreactivity

Q: With “QVQLVESGGGLVQEGGSLRLSCASSGYTFPYYAMGWYRQAPGKERELVAAIRSGGGTNYADSVKGRFTISRDNAKNTVYLQMNSLKPEDTADYYCAKEWAGGLYDYWGQGTQVTVSS” as the sequence, how does the “polyreactivity (PSR sort gate)” value read?
A: low polyreactivity

Q: Which “polyreactivity (PSR sort gate)” value does the source give for “QFQLVESGGGLDQAGGSLRISCAASGSTFSYNAIGWYRQAPGKERELVAAITSRGGSTRYADSVKGRFTISRDNAKNTVYLQMNSLNPEDTAVYYCARPYSYYPYSTVNYWGQGTQVTVSS” here?
A: high polyreactivity

Q: With “QVQLVESGGGLVQAGGSLRLSCAASGRIFVRNAMGWYRQAPGKERELVADITNGGSTNYADSVKGRFTISRDNAKNTVYLQMNSLKPEYTAVYYCAADTLGVYDGDYWGQGTQVTVSS” as the sequence, how does the “polyreactivity (PSR sort gate)” value read?
A: low polyreactivity

Q: For “QVQLVESGGGIVQAGGSLRLSCAASGGTFYYYAMGWYRQAPGKERELVATISYSGASTYYADSVKGRFTISRDNAKNTVYLQMNSLKPEDTAVYYCKARPYNHRYRAWMDYWGQGTQVTVSS”, which “polyreactivity (PSR sort gate)” value is on record?
A: high polyreactivity

Q: With “QVQLVESGGGLVQAGGSLRLSCAASGIIFSFYAMGWYRQAHGKERELVADITLSGGRTYYADSVKGRFTISRDNAKNTVYLQMNSLKPEDTAVYYCNADTYERGDYWGQGTQVTVSS” as the sequence, how does the “polyreactivity (PSR sort gate)” value read?
A: high polyreactivity

Q: Which “polyreactivity (PSR sort gate)” value does the source give for “QVQLVESGGGLVQAGGSLRLSCAASGFIFFLNAMGWYRQAPGKERELVAAISSSGGRTYYADSVKGRFTISRDNAKNTVYLQMNSLKPEDTAVYYCNAVTLYRSRTDGYWGQGTQVTVSS” here?
A: high polyreactivity

Q: For “QVQLVESGGGLVQAGGSLRLSCAASGIIFGYYAMGWYRQAPGKERELVAGITYRTGSTYYADSVKGRFTISRDNAKNTVYLQMNFLKPEDTAVYYCAATQYKRKYSSWYYYWGQGTQVTVSS”, which “polyreactivity (PSR sort gate)” value is on record?
A: high polyreactivity

Q: With “QVQLVESGGGLVHAGGSLRLSCAASGSTFNYYAMGWYRQAPGKERELVAAIDWSGGSTYYADSVKGRFTISRDNAKNTVYLQMNSLKPEDTAVYYCAARTYDYSYRSYDYWGQGTQVTVSS” as the sequence, how does the “polyreactivity (PSR sort gate)” value read?
A: low polyreactivity

Q: Which “polyreactivity (PSR sort gate)” value does the source give for “QVQLVESGGGIVQAGGSLRLSCAASGRTFNYYAMGWYRQAPGKEREWVAAISSSGGRTYYADSVKGRFTISRDNAKNTVYLQMNSLKPEDTAVYYCAATGGGYKHWFDYWGQGTQVTVSS” here?
A: low polyreactivity

Q: Which “polyreactivity (PSR sort gate)” value does the source give for “QVQLGESGGGLVQAGGSLRLSCAASGRTFGLYAMGWYRQAPGKERELVAAISWGGGRTYYADSVKGRFTISRDNAKNTVYLQMNSLKPEDTAVYYCNAVYSPRYYVGGYDYWGQVTQVTVSS” here?
A: high polyreactivity

Q: Which “polyreactivity (PSR sort gate)” value does the source give for “QVQLVESGGGLVQAGGSLRLSCAASGIIFLDNARGWYRQAPGKERELVAAYADSVKGRFTISRDNAKNTVYLQMNSLKPEDTAVYYCNAGWFRNYGFSIVTYDYWGHGTQVTVSS” here?
A: low polyreactivity

Q: For “QVQLVESGGGLVQAAGSLRLSCAASGSIFLSYAMGWYRQAPGKERELVAAITTDGGTNYADSVKGRFTISRDNAKNTVYLQMNSLKPEDSAVYYCAADSDPIPLIDYTLPMDYWGQGTQVTVSS”, which “polyreactivity (PSR sort gate)” value is on record?
A: low polyreactivity
